Results reported in the DeepSol protein solubility set.

Test: soluble on expression in E. coli; label from the status in PepcDB or PDB records

Row | Sequence | soluble on expression in E. coli
1 | MGGLTLFAAQGCKAPKQVAEQAEHPNIIYVFPDQYRNQAMGFWNQEGFRDKVNFRGDPVHTPNIDTFARESMVLTSAQSNCPLSSPHRGMLLTGMYPNRSGVPLNCNSTRPISSLRDDAECIGDVFSKAGYDCAYFGKLHADFPTPNDPENPGQYVETQRPVWDAYTPKEQRHGFNYWYSYGTFDEHKNPHYWDTDGKRHDPKEWSPLHESGKVVSYLKNEGNVRDTKKPFFIMVGMNPPHSPYRSLNDCEEQDFNLYKDQPLDSLLIRPNVDLNMKKAESVRYYFASVTGVDRAFGQILEALKQLGLDKNTVVIFASDHGETMCSQRTDDPKNSPYSESMNIPFLVRFPGKIQPRVDDLLLSAPDIMPTVLGLCGLGDSIPSEVQGRNFAPLFFDEKAEIVRPAGALYIQNLDGEKDKDGLVQSYFPSSRGIKTARYTLALYIDRKTKQLKKSLLFDDVNDPYQLNNLPLDENKEVVEQLYREMGTMLKEIDDPWYTEKILSDRIPYLEHHHHHH | not soluble
2 | MGGSHHHHHHGDDDDKMTKTFKTLDDFLGTHFIYTYDNGWEYEWYAKNDHTVDYRIHGGMVAGRWVTDQKADIVMLTEGIYKISWTEPTGTDVALDFMPNEKKLHGTIFFPKWVEEHPEITVTYQNEHIDLMEQSREKYATYPKLVVPEFANITYMGDAGQNNEDVISEAPYKEMPNDIRNGKYFDQNYHRLNK | soluble
3 | MGGSHHHHHHGMASALASEAPSPPRSPPPPTSPEPELAQLRRKVEKLERELRSCKRQVREIEKLLHHTERLYQNAESNNQELRTQVRGPPQPRAPSSPGEAFEARDSLGRGPWQGLRTTVEYLK | not soluble
4 | MGGSHHHHHHGMASETGPEDPSSMPEESSPRRTPQSIPYQDLPHLVNADGQYLFCRYWKPTGTPKALIFVSHGAGEHSGRYEELARMLMGLDLLVFAHDHVGHGQSEGERMVVSDFHVFVRDVLQHVDSMQKDYPGLPVFLLGHSMGGAIAILTAAERPGHFAGMVLISPLVLANPESATTFKVLAAKVLNLVLPNLSLGPIDSSVLSRNKTEVDIYNSDPLICRAGLKVCFGIQLLNAVSRVERALPKLTVPFLLLQGSADRLCDSKGAYLLMELAKSQDKTLKIYEGAYHVLHKELPEVTNSVFHEINMWVSQRTATAGTASPP | not soluble
5 | MGGYGGVKMEGMLKGEGPGPLPPLLQQYVELRDRYPDYLLLFQVGDFYECFGEDAERLARALGLVLTHKTSKDFTTPMAGIPIRAFDAYAERLLKMGFRLAVADQVEPAEEAEGLVRREVTQLLTPGTLTQEALLPREANYLAAIATGDGWGLAFLDVSTGEFKGTLLKSKSALYDELFRHRPAEVLLAPELRENEAFVAEFRKRFPVMLSEAPFEPQGEGPLALRRAQGALLAYARATQGGALSVRPFRLYDPGAFVRLPEASLKALEVFEPLRGQDTLFGVLDETRTAPGRRLLQAWLRHPLLERGPLEARLDRVERFVREGALREGVRRLLFRLADLERLATRLELSRASPRDLAALRRSLEILPELKGLLGEEVGLPDLSGLLEELRAALVEDPPLKVSEGGLIREGYDPDLDALRRAHAEGVAYFLDLEAREKERTGIPTLKVGYNAVFGYYLEVTRPYYEKVPQEYRPVQTLKDRQRYTLPEMKERERELYRLEALIKRREEEVFLALRERARKEAEALREAARILAELDVYAALAEVAVRHGYTRPRFGERLRIRAGRHPVVERRTAFVPNDLEMAHELVLVTGPNMAGKSTFLRQTALIALLAQIGSFVPAEEAELPLFDGIYTRIGASDDLAGGKSTFMVEMEEVALVLKEATERSLVLLDEVGRGTSSLDGVAIATALAEALHERRCYTLFATHYFELTALALPRLKNLHVAAKEEEGGLVFYHQVLPGPASKSYGVEVAEMAGLPKEVVERARALLSAMAARREGALEEVLERLLALDPDRLTPLEALRFLHELKALALGLPLGSMKG | soluble
6 | MGHFSEKSGSLILRRSLFIVDAIYLKKFRKKTGLKQKEFALSSGLTLKSLRNYEQGKRKLTLEKYQEIKSHFGYLVENDSSRLQVMIDYVRITLKDVRDLEFFCRNFLHCAFKEFQPFESKLMNYNHLWKRGDIWIFDFADKHETGNFQITVQLSGRGCRQLELLMETEKFTWHDWLSYLRNSYRDDMNVTRFDIAIDELYLGKDRENEQFHLSDMISKYYRHELDFESLRTWNYIGGGSLNFSDMEEIEQNRQGISLYFGSRQSEMYFNFYEKRYEIAKQEGITVEEALEIFELWNRYEIRLSQSKANAAVDEFISGVPIGEISRGLIVSKIDVYDGKNEYGSFQADRKWQLMFGGVEPLKFVTKPEAYSIERTLRWLSDSVSPSLAMIREYDMIVDGDYLQTILNSGEVNERGEKILDSIKASLGIL | not soluble
7 | MGHHHHHHGGHMSLAQNDHETVDMLLVGAGIMSATLAVLLKELDPNLKMEVVELQESGAIESSNPWNNAGTGHAGLCELNYTPQSADGSIDIKKAVGINTMFEVSKQLWSHLVAKGTFGSPKTFINPVPHLSFVRGSEGIAYLKKRFESLTKHHAFETMVYSEDKATLAEWMPLMMPGRPADEAIAATRVEGGTDVNFGALTNQLLQHLAQQPGAQIRYNQKVTHLRRADNGWRVTVKDTRNGGDREIQARFVFLGAGGGALPLLQLSGIPEGKGFGGFPVSGQWLRCDNPEIVKQHQAKVYSQAEVGSPPMSVPHLDTRVVDGKKSLLFGPYAGFSTKFLRHGSFLDLPLSVRPGNILPMLSVARDNMDLTRYLIGQVMQSPEQRLEALRKFYPEARAEDWRLEVAGQRVQIIKKDPKKGGILQFGTELVAAHDGSIAALLGASPGASVTVSIMLGLIERCFPEQARSPEWSAKLKEIFPAREKELESDAELYRSVSSRCSEVLELTAKNDVQAEGGS | soluble
8 | MGHHHHHHGGHMSLVRITWCPGCGNFAILKAFERASRRVIEEGFDIAVSSGIGCHGKISDYLSLPGFHVIHGRVPPFLTGLKLANPNLVVVGFSGDGDGLNEGVEHLVHAARRNTDITIILHNNGVFGLTTGQVTATSPRGRKSRSTPRGNPEYPLNPCHLMLVSGATFVARVFAGEQERLSEVFYNAMKHKGFSFVEVMQPCVSFNNFWEMRKEIYWIERSSDLLEAMKNCSDAKACGIFYAEEKETYEDAVWKSTFEGGS | soluble
9 | MGHHHHHHGSLVPRGSRAYSFKVVLLGEGCVGKTSLVLRYCENKFNDKHITTLQASFLTKKLNIGGKRVNLAIWDTAGQERFHALGPIYYRDSNGAILVYDITDEDSFQKVKNWVKELRKMLGNEICLCIVGNKIDLEKERHVSIQEAESYAESVGAKHYHTSAKQNKGIEELFLDLCKRMIET | soluble
10 | MGHHHHHHHHHHSSGHIDDDDKHMYTKIIGTGSYLPEQVRTNADLEKMVDTSDEWIVTRTGIRERHIAAPNETVSTMGFEAATRAIEMAGIEKDQIGLIVVATTSATHAFPSAACQIQSMLGIKGCPAFDVAAACAGFTYALSVADQYVKSGAVKYALVVGSDVLARTCDPTDRGTIIIFGDGAGAAVLAASEEPGIISTHLHADGSYGELLTLPNADRVNPENSIHLTMAGNEVFKVAVTELAHIVDETLAANNLDRSQLDWLVPHQANLRIISATAKKLGMSMDNVVVTLDRHGNTSAASVPCALDEAVRDGRIKPGQLVLLEAFGGGFTWGSALVRF | soluble
11 | MGHHHHHHHHHHSSGHIEGRHMAAVTLHLRAETKPLEARAALTPTTVKKLIAKGFKIYVEDSPQSTFNINEYRQAGAIIVPAGSWKTAPRDRIIIGLKEMPETDTFPLVHEHIQFAHCYKDQAGWQNVLMRFIKGHGTLYDLEFLENDQGRRVAAFGFYAGFAGAALGVRDWAFKQTHSDDEDLPAVSPYPNEKALVKDVTKDYKEALATGARKPTVLIIGALGRCGSGAIDLLHKVGIPDANILKWDIKETSRGGPFDEIPQADIFINCIYLSKPIAPFTNMEKLNNPNRRLRTVVDVSADTTNPHNPIPIYTVATVFNKPTVLVPTTAGPKLSVISIDHLPSLLPREASEFFSHDLLPSLELLPQRKTAPVWVRAKKLFDRHCARVKRSSRL | soluble
12 | MGHHHHHHMAGVSEYELPEDPRWELPRDRLVLGKPLGEGAFGQVVLAEAIGLDKDKPNRVTKVAVKMLKSDATEKDLSDLISEMEMMKMIGKHKNIINLLGACTQDGPLYVIVEYASKGNLREYLQARRPPGLEFSFNPSHNPEEQLSSKDLVSCAYQVARGMEYLASKKCIHRDLAARNVLVTEDNVMKIADFGLARDIHHIDYYKKTTNGRLPVKWMAPEALFDRIYTHQSDVWSFGVLLWEIFTLGGSPYPGVPVEELFKLLKEGHRMDKPSNCTNELYMMMRDCWHAVPSQRPTFKQLVEDLDRIVALTSNQEYLDLSMPLD | soluble
13 | MGHHHHHHSHCPQESVYCENKCGARMMRRLLAQHATSECPKRTQPCTYCTKEFVFDTIQSHQYQCPRLPVACPNQCGVGTVAREDLPGHLKDSCNTALVLCPFKDSGCKHRCPKLAMARHVEESVKP | not soluble
14 | MGHHHHHHSHCSSCSTPLYDQGGPVEILPFLYLGSAYHASRKDMLDALGITALINVSANCPNHFEGHYQYKSIPVEDNHKADISSWFNEAIDFIDSIKNAGGRVFVHCQAGISRSATICLAYLMRTNRVKLDEAFEFVKQRRSIISPNFSFMGQLLQFESQVLAPHCSAEAGSPAMAVLDRGTSTTTVFNFPVSIPVHSTNSALSYLQSPITTSPSC | not soluble
15 | MGHHHHHHSHDFEFIRRVEASEESLDVVFAGRLIKEKGADLLIKAMKLLPDYSCLIVGEGPEKASLIKSAPENVKFAGFMNYGYLIATLKSAKVFVLPSRREGFGIAALEANACGLPVVTINHPMNAVVEIARETGFIASPSPQDIAEKIKIAMESRKKMRRRCVDYARKF | not soluble
16 | MGHHHHHHSHDQLDRAGVAAVALSGGEPTIHPHFLRIVKELSSRGIHTSVATNGWTFADKEKLEEAVKAGLKYVEISVDSAKPEKHDEFRGIPGAWERAIKALENAVEIGVSHGMAVIMDKETYQEMDDILDLAESIGVKRVIFFNLVPTGRAEDMVKVDLTPEEREEFLKELYHQMKKRKLEILTTAPQYARVTLIESQGKNVSPAHFYVGQNTAVKTLAEFIGGCGAGRIYAGIEPDGTVVPCVFL | not soluble
17 | MGHHHHHHSHIAMRRDRGPKPALGGAGEVEPGGMAASPTGRPRRLQRYLQSGEFDQFRDFPIFESNFVQVTRLGEVANEVTMGVAASSPALELPDLLLLAGPAKENGHLQLFGLFPLKFVQLFVHDKSRCQLEVKLNTSRTFYLQLRAPLKTRDREFGQWVRLLYRLRFLSASAVPFTQE | not soluble
18 | MGHHHHHHSHIEETTMTTQTPAPIQAPSAILPLPGQSVERLCVDPRHRQGPVNLLSDPEQGVEVTGQYEREKAGFSWIEVTFKNPLVWVHASPEHVVVTRNRRSSAYKWKETLFSVMPGLKMTMDKTGLLLLSDPDKVTIGLLFWDGRGEGLRLLLRDTDRFSSHVGGTLGQFYQEVLWGSPAASD | not soluble
19 | MGHHHHHHSHIELVCWYMVDRDSIDDEPVDIAFIEGSVSTEEEVELVKKIRENSKIVVAVGACAVQGGVQSWTDKSLEELWRTVYGDAKVKFKPKKAEPVSKYIKVDYNIYGCPPEKRDFLYALGTFL | not soluble
20 | MGHHHHHHSHKKHNQGKEAAQRVLSQIDVAQKKLQDVSMKFRLFQKPANFEQRLQESKMILDEVKMHLPALETKSVEQEVVQSQLNHCVNLYKSLSEVKSEVEMVIKTGRQIVQKKQTENPKELDERVTALKLHYNELGAKVTERKQQLEKCLKLSRKMRKEMNVLTEWLAATDMELTKRSAVEGMPSNLDSEVAWGKATQKEIEKQKVHLKSITEVGEALKTVLGKKETLVEDKLSLLNSNWIAVTSRAEEWLNLLLEYQKHMETFDQNVDHITKWIIQADTLLDESEKKK | soluble
21 | MGHHHHHHSHLCTNFFIFTGGPGSGKTAVLNELNTWGYLTVSEVARSIIQKQQADGGDAIHTGNRKAFRDLMLEQSIADYCKMQSEEKIVFFDRGIPDLYGYSKAFCGEASKEVNEAVGRFRYNKTVFIFPPWPEIYENDDERQQDYQEALQTYYAVKEGYFDCGYVLLEVPKCPIKDRANFIFQMISKNG | not soluble
